According to IntAct's records for PubMed 30458687:

Columns and labels:
apoa1_human APOA1 [1] = molecular target: apoa1_human APOA1 (UniProt P02647)
apoa1_human APOA1 [2] = molecular target: apoa1_human APOA1 (UniProt P02647); remark: listed apart in the source

apoa1_human APOA1, sequence (P02647 whole entry): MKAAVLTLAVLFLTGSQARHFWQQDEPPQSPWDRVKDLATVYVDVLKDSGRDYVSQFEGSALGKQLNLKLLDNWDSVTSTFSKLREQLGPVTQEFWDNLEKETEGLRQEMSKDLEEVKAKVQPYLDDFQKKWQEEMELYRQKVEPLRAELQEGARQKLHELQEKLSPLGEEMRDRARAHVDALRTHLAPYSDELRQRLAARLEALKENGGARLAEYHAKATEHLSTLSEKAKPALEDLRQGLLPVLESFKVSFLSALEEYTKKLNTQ

In the case of “Phospholipid-transporting ATPase ABCA1 (Homo sapiens), O95477 K939M;K1952M”, the “effect of a mutation on the interaction” value (apoa1_human APOA1 [1]) is reported as “disrupting interaction strength” and the “effect of a mutation on the interaction” value (apoa1_human APOA1 [2]) is reported as “disrupting interaction strength”.
